# Measured values as given in PMC5018465 (Biochimica et biophysica acta, 2016).
# Biological target: the molecule itself
# Test: SEC-MALS
row,Protein,binding result
1,"αAΔ70–76 deletion mutant of human αA-crystallin (natural protein, UniProt P02489 1-173, looked up) MDVTIQHPWFKRTLGPFYPSRLFDQFFGEGLFEYDLLPFLSSTISPYYRQSLFRTVLDSGISEVRSDRDVKHFSPEDLTVKVQDDFVEIHGKHNERQDDHGYISREFHRRYRLPSNVDQSALSCSLSADGMLTFCGPKIQTGLDATHAERAIPVSREEKPTSAPSS",binds
2,"αAΔ70–88 deletion mutant of human αA-crystallin (natural protein, UniProt P02489 1-173, looked up) MDVTIQHPWFKRTLGPFYPSRLFDQFFGEGLFEYDLLPFLSSTISPYYRQSLFRTVLDSGISEVRSDRDVQDDFVEIHGKHNERQDDHGYISREFHRRYRLPSNVDQSALSCSLSADGMLTFCGPKIQTGLDATHAERAIPVSREEKPTSAPSS",binds
